Reference: publication doi:10.1101/2025.04.29.651185

Key:
[1] = biological target: proteorhodopsin from the marine SAG AG-319-B05 Pseudothioglobus (PsPR) (Pseudothioglobus sp. (SAG AG-319-B05)); assay: cryo-EM structure
[2] = biological target: flotillin-associated rhodopsin from the marine SAG AG-319-B05 Pseudothioglobus (PsFAR) (Pseudothioglobus sp. (SAG AG-319-B05)); assay: cryo-EM structure

Row | Substance | stoichiometry N [1] | stoichiometry N [2]
1 | proteorhodopsin from the marine SAG AG-319-B05 Pseudothioglobus (PsPR) (natural protein) | 5 | 
2 | flotillin-associated rhodopsin from the marine SAG AG-319-B05 Pseudothioglobus (PsFAR) (natural protein) |  | 5
